How the values were obtained:
Test in all cases: cell-based or functional assay
[1] = target: sortase-ligated phosphopeptide β2AR reconstituted in HDL particles (HDL-β2ARpp) (human) (UniProt P07550)
[2] = target: phosphopeptide-ligated β2AR with a deletion of the third intracellular loop (β2ARppΔ238-267), in HDL particles (human) (UniProt P07550)
[3] = target: wild-type (WT) β2AR reconstituted in high-density lipoprotein particles (HDL-β2AR), non-phosphorylated (human) (UniProt P07550)
[4] = target: β2AR ligated to a non-phosphorylated version of the V2R peptide, in HDL particles (β2ARnp) (human) (UniProt P07550)

| fold increase of isoproterenol affinity by the transducer [1] [fold] | log IC50 of isoproterenol (ISO), [125I]-CYP competition binding, in the presence of βarr1 (no transducer: -6.24+/-0.04) [1] [log] | log IC50 of isoproterenol (ISO), competition radioligand binding, in the presence of βarr1 (no transducer: -6.30+/-0.05) [1] [log] | log IC50 of isoproterenol (ISO), competition radioligand binding, in the presence of βarr1 Δ62-77 (no transducer: -6.30+/-0.05) [1] [log] | log IC50 of isoproterenol (ISO), competition radioligand binding, in the presence of Gs (no transducer: -6.91+/-0.04) [2] [log] | log IC50 of isoproterenol (ISO), [125I]-CYP competition binding, in the presence of Gs (no transducer: -6.24+/-0.04) [1] [log] | fold increase of isoproterenol affinity by the transducer [3] [fold] | log IC50 of isoproterenol (ISO), [125I]-CYP competition binding, in the presence of Gs (no transducer: -6.82+/-0.03) [3] [log] | log IC50 of isoproterenol (ISO), [125I]-CYP competition binding, in the presence of Gs (no transducer: -6.42+/-0.09) [4] [log] | Substance |
| --- | --- | --- | --- | --- | --- | --- | --- | --- | --- |
| 9 | -7.14 | -7.25 | – | – | – | – | – | – | β-arrestin1, minimal cysteine and truncated variant of rat βarr1 (βarr1-MC-393) (from UniProt P29066 1-393) |
| – | – | – | -6.48 | – | – | – | – | – | finger loop deletion mutant of β-arrestin1 (βarr1 Δ62-77) in βarr1-MC-393 (from UniProt P29066 1-61; P29066 78-393) |
| 800 | – | – | – | -8.85 | -9.15 | 1000 | -8.88 | -9.02 | heterotrimeric Gs protein (short Gαs splice variant, Gβ1-His6, Gγ2) (from UniProt P62873 2-340; P59768 2-68) |

Source: patent US20240101642A1
